# Data: patent US20190127480A1
# Assays:
# [1] = target: human CD3 expressed on cells (Jurkat cells; human T-cells of PBMC) (human) (UniProt P09693); test: cell-based or functional assay
# [2] = target: human CD3 expressed on cells (Jurkat cells; human T-cells of PBMC) (human) (UniProt P09693); test: FACS titration on Jurkat cells (CD3+ human T-cell line)
# [3] = target: cynomolgus monkey CD3 expressed on monkey T-cells (PBMCs) (cynomolgus monkey) (UniProt Q95LI5); test: FACS titration on monkey PBMCs, gated on CD2+CD4+ T cells
# cynomolgus monkey CD3 expressed on monkey T-cells (PBMCs) (cynomolgus monkey), sequence (Q95LI5 22-198, chain 1 of 2): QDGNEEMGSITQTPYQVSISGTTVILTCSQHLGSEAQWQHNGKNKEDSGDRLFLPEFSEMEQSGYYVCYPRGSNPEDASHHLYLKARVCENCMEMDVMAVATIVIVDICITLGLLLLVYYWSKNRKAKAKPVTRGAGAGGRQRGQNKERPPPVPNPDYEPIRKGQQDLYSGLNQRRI
# cynomolgus monkey CD3 expressed on monkey T-cells (PBMCs) (cynomolgus monkey), sequence (Q95LI8 22-171, chain 2 of 2, further chain): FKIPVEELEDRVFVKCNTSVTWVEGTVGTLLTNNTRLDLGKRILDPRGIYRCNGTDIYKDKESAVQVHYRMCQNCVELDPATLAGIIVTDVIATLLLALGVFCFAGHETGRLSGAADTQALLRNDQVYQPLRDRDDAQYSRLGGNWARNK
# [4] = target: cynomolgus monkey CD3 expressed on monkey T-cells (PBMCs) (cynomolgus monkey) (UniProt Q95LI5); test: cell-based or functional assay
# human CD3 expressed on cells (Jurkat cells; human T-cells of PBMC) (human), sequence (chain, as listed by the source, chain 1 of 4): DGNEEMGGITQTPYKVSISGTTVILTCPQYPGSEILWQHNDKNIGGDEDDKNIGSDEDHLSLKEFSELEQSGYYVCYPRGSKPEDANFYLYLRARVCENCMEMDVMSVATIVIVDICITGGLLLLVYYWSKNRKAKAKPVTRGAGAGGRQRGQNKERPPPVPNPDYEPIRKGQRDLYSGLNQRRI
# human CD3 expressed on cells (Jurkat cells; human T-cells of PBMC) (human), sequence (chain, as listed by the source, chain 2 of 4): as the sequence (Q95LI8 22-171, chain 2 of 2, further chain) above, with V5I, K15N, V20I, T32S, N33D, N34I, A64T, N74S, L83V, R141H counted along it
# human CD3 expressed on cells (Jurkat cells; human T-cells of PBMC) (human), sequence (P09693 23-182, chain 3 of 4): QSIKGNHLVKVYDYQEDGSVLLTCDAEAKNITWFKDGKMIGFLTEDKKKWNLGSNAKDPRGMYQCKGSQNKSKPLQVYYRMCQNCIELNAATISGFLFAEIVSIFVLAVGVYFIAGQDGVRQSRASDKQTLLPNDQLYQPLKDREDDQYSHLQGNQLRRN
# human CD3 expressed on cells (Jurkat cells; human T-cells of PBMC) (human), sequence (P20963 22-164, chain 4 of 4): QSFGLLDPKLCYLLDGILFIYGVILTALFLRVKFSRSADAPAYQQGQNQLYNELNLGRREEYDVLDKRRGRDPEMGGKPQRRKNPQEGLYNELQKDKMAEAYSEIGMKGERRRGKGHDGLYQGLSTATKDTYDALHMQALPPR
Substance,U937 Cytotoxicity Human T-cells [1] [pM],also measured
"Isotype Ctrl (irrelevant isotype matched antibody, human Fc mAb tables)",0,–
"Isotype Ctrl (irrelevant isotype matched antibody, hybridoma mAb table)",0,–
"Isotype Ctrl (irrelevant isotype matched antibody, monovalent 1-arm mAb tables)",0,–
"OKT-3, mouse monoclonal antibody against human T-cell surface antigens (ATCC CRL-8001)",2.35,EC50 [M] hPBMC Proliferation [1]: 3.3e-13 M; EC50 [2]: 0.196 nM
"SP34, commercially available mouse monoclonal antibody reactive against the epsilon chain of the T3 complex on human T lymphocyte cells",–,EC50 [3]: 0.0703 nM; EC50 [M] mfPBMC Proliferation [4]: 1.71e-12 M
